Target: T1, endogenous tobacco RUBISCO small subunit, P69249
T1 chain: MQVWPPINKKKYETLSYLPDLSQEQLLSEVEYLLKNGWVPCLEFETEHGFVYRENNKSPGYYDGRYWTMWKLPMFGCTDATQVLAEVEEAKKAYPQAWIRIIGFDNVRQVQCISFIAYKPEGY

B1: Griffithsia monilis RUBISCO large subunit with C-terminal 6-His tag, product of the chloroplast transgene cpGMNrbcL (pTCP104 tobacco) (protein)
chain: MANSVEERTRIKNERYESGVIPYAKMGYWDPNYAVKDTDILALFRVSPQPGVDPVEASAAVAGESSTATWTVVWTDLLTACDLYRAKAYKVESVPNTSDQYFAYISYDIDLFEEGSIANLTASIIGNVFGFKAVKALRLEDMRIPVAYLKTFQGPATGIVVERERMDKFGRPFLGATVKPKLGLSGKNYGRVVYEGLRGGLDFLKDDENINSQPFMRWKERFLYSIEAVNRSIAATGEVKGHYMNVTAATMEEMYERAEFAKQLGTVIIMIDLVIGYTAIQTMGIWARKNDMILHLHRAGNSTYSRQKIHGMNFRVICKWMRMAGVDHIHAGTVVGKLEGDPLMIRGFYNTLLLPYLEVNLPQGIFFQQDWASLRKVTPVASGGIHCGQMHQLLDYLGNDVVLQFGGGTIGHPDGIQAGATANRVALESMVIARNEGRDYVAEGPQILRDAAKTCGPLQTALDLWKDITFNYTSTDTADFVETPTANVHHHHHH
  RUBISCO Activity (RuBP-dependent 14CO2 fixation), pTCP104-1 tobacco crude extract: 0 mU/mg
  RUBISCO Activity (RuBP-dependent 14CO2 fixation), pTCP104-1 tobacco purified rubisco: 2.1 mU/mg
